Read-outs that look alike come from different tables or passages of the source. Values belong to the molecule of their own block, whether it stands above or below them. Where a SMILES comes first, the peptide text is derived from it. Bridges are numbered along the chain shown (N, C = ends). Where no end group is shown, it is not given here.
Assays:
[1] = Peptide stability in human serum; assay type: in vitro ADME; conditions: undiluted human serum, 37° C., anti-CTT antibody dot blot
Description: (§1) FIG. 3A and 3B. Activity and stability of the tryptophan analogue containing CTT peptides. (A) Inhibition of MMP-2 using β-casein (21 IcDa) as substrate. The peptides (100 μM) were incubated with MMP-2 and β-casein (0.1 mg/ml) for 2 h and samples run on a 15% SDS-PAGE gel. (B) iCTT, 5F-CTT or a negative control peptide CERGGLETSC at a 150 μM concentration was incubated in undiluted human serum for the indicated time periods at 37° C. Samples were withdrawn, stored frozen and blotted on a nitrocellulose membrane. The level of CTT was quantitated using polyclonal anti-CTT antibody. The blots were scanned and the results shown are means ±SD from triplicate measurements. The results were similar in two other experiments.
Spectrometry and fluorometry. The absorbance spectrum for each peptide in the 200-375 nm range was measured in 20 mM Tris-HCl (pH 7.4)/50 mM NaCl/0.1 mM EDTA with Genesys 5 spectrophotometer (Thermo Spectronic, Rochester, N.Y.). The fluorescence spectra of the CTT phage cultured in the presence of tryptophan, 5FW or 6FW were measured from heat-denatured phages (2×10^9/ml) in 10 mM Tris-HCl (pH 7.5)/140 mM NaCl/1% SDS. The fluorescence emission spectra (average of three scans) at 300-500 nm were recorded with MOS-250 spectrofluorometer. The peptides were excited at 295 nm (bandwidth 5 nm) and the emission spectra recorded in the 300-500 nm range. Peptide stability in human serum. […]

[2] = Peptide stability in cell culture medium; assay type: in vitro ADME; conditions: cell culture medium with 10% heat-inactivated fetal calf serum
Description: The gelatinase inhibitory activities of the modified CTT peptides were tested in the β-casein degradation assay (FIG. 3A) and the gelatin degradation assay (data not shown). […] To determine the peptide levels, we used anti-CTT antibody that also recognized the 5F-Trp containing peptide. […] We could not determine the half-lives of 5OH-Trp and 6F-Trp containing peptides as the anti-CTT antibody recognized these peptides only weakly in the presence of serum.

[3] = target: T1, MMP-9 (Homo sapiens, UniProt P14780); test: Gelatin degradation assay (biotinylated gelatin), MMP-9; assay type: biochemical
T1 construct: purchased Roche
T1 sequence (P14780 107-707 limits assumed): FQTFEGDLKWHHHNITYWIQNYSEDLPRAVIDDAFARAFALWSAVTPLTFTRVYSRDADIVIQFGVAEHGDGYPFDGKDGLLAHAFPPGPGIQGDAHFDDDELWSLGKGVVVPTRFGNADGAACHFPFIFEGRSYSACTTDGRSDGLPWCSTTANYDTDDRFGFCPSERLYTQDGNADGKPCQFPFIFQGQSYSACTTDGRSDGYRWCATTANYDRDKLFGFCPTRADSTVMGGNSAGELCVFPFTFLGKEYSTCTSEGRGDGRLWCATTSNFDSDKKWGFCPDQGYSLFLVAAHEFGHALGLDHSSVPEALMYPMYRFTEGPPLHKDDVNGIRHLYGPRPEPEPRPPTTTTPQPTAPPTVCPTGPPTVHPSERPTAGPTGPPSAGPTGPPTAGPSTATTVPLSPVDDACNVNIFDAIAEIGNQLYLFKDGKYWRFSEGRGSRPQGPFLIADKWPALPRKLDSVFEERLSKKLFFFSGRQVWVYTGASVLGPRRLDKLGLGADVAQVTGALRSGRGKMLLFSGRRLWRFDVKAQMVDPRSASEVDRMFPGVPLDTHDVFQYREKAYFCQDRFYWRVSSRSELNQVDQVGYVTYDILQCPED
Description: (§2) FIG. 1A and 1B. Inhibition of NWP-2 and MMP-9 by synthetic or intein-produced peptides. (A) MMP-9 was treated with CTT, iCTT, or STT at the peptide concentrations indicated. MMP-9 activity was determined using biotinylated gelatin. (13) The activity of the alanine mutant peptides (see Table 1) was compared to that of CTT, which inhibited MMP-2 by 100% in the gelatin degradation assay. In all assays the peptides were preincubated with the enzyme for 30 min before the substrate was added.
(§3) Gelatinase inhibition assays. Gelatiases proMMP-2 and proMMP-9 (Roche) were activated with p-aminophenylmercuric acetate or trypsin, respectively, and then incubated in the presence or absence of each peptide to be tested for 30 min. The gelatinase inhibitory activity was determined using the following three assays: (i) The degradation of biotinylated gelatin was examined using a gelatinase activity kit according to the manufacturer's instructions. (Roche). […] (iii) The degradation of β-casein was studied by incubating activated MMP-2 with 0.1 mg/ml concentration of β-casein for 2 h at 37° C., after which the samples were analyzed on a 15% SDS-PAGE gel.

[4] = target: T2, MMP-2 (Homo sapiens, UniProt P08253); test: Gelatin degradation assay (biotinylated gelatin), MMP-2; assay type: biochemical
T2 construct: purchased Roche
T2 sequence (P08253 110-660): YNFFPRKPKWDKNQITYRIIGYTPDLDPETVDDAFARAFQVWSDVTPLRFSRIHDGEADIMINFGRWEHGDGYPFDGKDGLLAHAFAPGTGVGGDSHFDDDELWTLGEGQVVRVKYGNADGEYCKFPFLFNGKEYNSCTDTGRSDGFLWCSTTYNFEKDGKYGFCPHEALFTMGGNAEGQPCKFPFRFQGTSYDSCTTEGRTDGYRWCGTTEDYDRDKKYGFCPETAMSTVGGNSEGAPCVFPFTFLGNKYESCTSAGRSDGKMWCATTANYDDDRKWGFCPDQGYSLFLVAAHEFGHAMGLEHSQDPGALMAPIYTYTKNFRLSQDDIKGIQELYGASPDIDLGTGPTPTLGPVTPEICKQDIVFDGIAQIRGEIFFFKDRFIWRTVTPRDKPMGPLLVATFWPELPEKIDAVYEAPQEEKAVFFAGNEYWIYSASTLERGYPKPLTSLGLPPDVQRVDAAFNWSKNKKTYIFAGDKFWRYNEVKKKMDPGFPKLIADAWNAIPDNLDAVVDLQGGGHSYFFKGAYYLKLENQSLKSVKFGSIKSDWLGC
Description: as §2
(§4) Gelatinase inhibition assays. Gelatiases proMMP-2 and proMMP-9 (Roche) were activated with p-aminophenylmercuric acetate or trypsin, respectively, and then incubated in the presence or absence of each peptide to be tested for 30 min. The gelatinase inhibitory activity was determined using the following three assays: (i) The degradation of biotinylated gelatin was examined using a gelatinase activity kit according to the manufacturer's instructions. (Roche). (ii) The degradation of a MMP-2 specific fluorescent peptide substrate MCA-Pro-Leu-Ala-Nva-Dpa-Ala-Arg-NH2 (Calbiochem) (2.5 μM final concentration) was followed using MOS-250 spectrofluorometer (Bio-Logic SA, Claix, France) with 330 nm excitation and 390 nm emission. (iii) The degradation of β-casein was studied by incubating activated MMP-2 with 0.1 mg/ml concentration of β-casein for 2 h at 37° C., after which the samples were analyzed on a 15% SDS-PAGE gel.

[5] = Solubility in water / PBS
Description: The oligonucleotide was made double-stranded using PCR. The PCR product was digested with PstI and SapI and cloned to TWIN2 intein vector (New England Biolabs), digested also with PstI and SapI. This DNA construct was electroporated into MC1061 competent cells. […] The plasmid vectors were extracted from the pool of at least 216 independent clones of MC1061. The plasmids were then electroporated to ER2566 cells enabling the production of inteins. The cells harboring the plasmids were plated on LB plates containing ampicillin. 10 independent clones were pooled to one single pool. These 10 clones in one pool were cultured and the peptides were expressed and purified with chitin affinity column and reverse-phase C18 column. Each pool of peptides was tested for activity. The solubility in PBS was also tested. […] The plasmid coding for this peptide was sequenced and the peptide was synthesized with chemical synthesis.

[6] = target: T2, MMP-2; test: β-casein degradation assay; assay type: biochemical; conditions: peptide 100 μM; β-casein 0.1 mg/ml, 2 h
Description: as §1, §3

[7] = target: T3, gelatinase A (MMP-2) (Homo sapiens, UniProt P08253); test: Inhibition of gelatinase A by hydrophilic CTT library peptides; assay type: biochemical; conditions: FIG. 5
T3 construct: purchased Roche
T3 sequence (P08253 110-660): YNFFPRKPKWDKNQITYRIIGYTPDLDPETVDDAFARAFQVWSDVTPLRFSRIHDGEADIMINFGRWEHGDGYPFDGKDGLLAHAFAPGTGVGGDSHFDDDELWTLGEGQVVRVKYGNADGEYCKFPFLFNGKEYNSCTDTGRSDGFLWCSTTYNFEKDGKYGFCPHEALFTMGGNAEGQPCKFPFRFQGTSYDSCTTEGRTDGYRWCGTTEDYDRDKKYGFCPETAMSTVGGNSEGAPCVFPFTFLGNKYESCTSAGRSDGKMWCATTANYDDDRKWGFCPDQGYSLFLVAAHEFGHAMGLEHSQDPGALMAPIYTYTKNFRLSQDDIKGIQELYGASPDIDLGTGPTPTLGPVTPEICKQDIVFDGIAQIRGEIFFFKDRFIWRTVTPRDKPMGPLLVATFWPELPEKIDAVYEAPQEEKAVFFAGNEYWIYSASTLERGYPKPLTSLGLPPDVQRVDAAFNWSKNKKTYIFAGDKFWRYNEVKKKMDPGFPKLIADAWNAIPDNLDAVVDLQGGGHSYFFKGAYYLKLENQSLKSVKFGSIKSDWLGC
From the text: FIG. 5. Inhibition of gelatiaase A (MMP-2) with CTT-peptide, with pool 1 and pool 2, both containing 10 different peptide derivates of CTT. The library contains 216 different combinations of CTT peptide derivates. Clone 4 from pool 1 and clone 7 from pool 2 were purified and tested also for their inhibition activity against gelatinase A.
as §4
The oligonucleotide was made double-stranded using PCR. […] This DNA construct was electroporated into MC1061 competent cells. […]

[8] = target: MMP-9, activated (UniProt P14780 20-707, limits assumed); test: cell-based or functional assay
Chain of MMP-9, activated (P14780 20-707 limits assumed): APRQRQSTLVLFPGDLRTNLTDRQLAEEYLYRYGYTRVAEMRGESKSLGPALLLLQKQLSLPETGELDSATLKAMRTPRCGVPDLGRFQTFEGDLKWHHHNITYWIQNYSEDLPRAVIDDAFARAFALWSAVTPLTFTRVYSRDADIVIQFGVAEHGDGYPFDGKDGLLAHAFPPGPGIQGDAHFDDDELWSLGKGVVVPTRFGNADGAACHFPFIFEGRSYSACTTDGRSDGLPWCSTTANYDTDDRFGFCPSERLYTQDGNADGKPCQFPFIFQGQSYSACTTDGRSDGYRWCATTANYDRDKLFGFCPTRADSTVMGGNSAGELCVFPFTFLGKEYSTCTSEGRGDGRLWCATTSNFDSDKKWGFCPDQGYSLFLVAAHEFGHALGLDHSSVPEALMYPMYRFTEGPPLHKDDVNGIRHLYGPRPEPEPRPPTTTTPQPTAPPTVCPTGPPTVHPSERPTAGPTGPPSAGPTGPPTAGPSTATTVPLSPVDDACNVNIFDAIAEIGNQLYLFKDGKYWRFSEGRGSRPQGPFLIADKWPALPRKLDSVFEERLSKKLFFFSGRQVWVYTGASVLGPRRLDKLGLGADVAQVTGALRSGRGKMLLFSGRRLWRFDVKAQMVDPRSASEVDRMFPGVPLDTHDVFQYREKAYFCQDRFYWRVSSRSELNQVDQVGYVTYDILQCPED

[9] = target: T4, MMP-2 (gelatinase A), activated (UniProt P08253 30-660, limits assumed); test: cell-based or functional assay
T4 sequence (looked up): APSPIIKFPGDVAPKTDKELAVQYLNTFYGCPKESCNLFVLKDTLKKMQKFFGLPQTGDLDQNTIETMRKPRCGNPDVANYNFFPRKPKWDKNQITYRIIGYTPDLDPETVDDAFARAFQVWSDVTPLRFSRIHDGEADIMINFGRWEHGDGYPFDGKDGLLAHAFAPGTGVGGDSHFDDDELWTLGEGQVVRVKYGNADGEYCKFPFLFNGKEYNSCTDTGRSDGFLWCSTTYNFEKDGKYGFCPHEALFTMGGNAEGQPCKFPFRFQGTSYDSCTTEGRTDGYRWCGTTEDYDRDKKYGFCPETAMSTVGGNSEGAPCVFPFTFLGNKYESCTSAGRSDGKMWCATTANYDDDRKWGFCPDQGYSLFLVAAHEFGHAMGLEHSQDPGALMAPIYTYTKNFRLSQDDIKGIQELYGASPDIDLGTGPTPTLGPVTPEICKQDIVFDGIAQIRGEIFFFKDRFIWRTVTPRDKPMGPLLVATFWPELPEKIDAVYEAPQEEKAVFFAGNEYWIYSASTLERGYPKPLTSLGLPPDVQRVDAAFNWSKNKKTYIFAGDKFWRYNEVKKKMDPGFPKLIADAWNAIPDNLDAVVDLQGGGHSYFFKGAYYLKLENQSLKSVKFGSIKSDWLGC

half-life at 150 μM [1]: 3 h
stability compared with CTT [2]: No difference
Molecule: CC(C)C[C@@H]1NC(=O)[C@H]([C@@H](C)O)NC(=O)[C@H](Cc2ccccc2)NC(=O)CNC(=O)[C@H](Cc2c[nH]c3ccc(F)cc23)NC(=O)[C@H](Cc2c[nH]cn2)NC(=O)[C@H]([C@@H](C)O)NC(=O)[C@H]([C@@H](C)O)NC(=O)[C@@H](N)CSSC[C@@H](C(=O)O)NC1=O [5F-Trp containing peptide, CTTH(5FW)GFTLC] (HELM PEPTIDE1{C.T.T.H.[O=C([C@H](Cc1c[nH]c2ccc(F)cc12)N[*:1])[*:2]].G.F.T.L.C}$PEPTIDE1,PEPTIDE1,1:R3-10:R3$$$V2.0; N-terminus and C-terminus assumed)

Molecule: CC(C)C[C@@H]1NC(=O)[C@H]([C@@H](C)O)NC(=O)[C@H](Cc2ccccc2)NC(=O)CNC(=O)[C@H](Cc2c[nH]c3ccccc23)NC(=O)[C@H](Cc2c[nH]cn2)NC(=O)[C@H]([C@@H](C)O)NC(=O)[C@H]([C@@H](C)O)NC(=O)[C@@H](N)CSSC[C@@H](C(=O)O)NC1=O [CTT, CTTHWGFTLC] (HELM PEPTIDE1{C.T.T.H.W.G.F.T.L.C}$PEPTIDE1,PEPTIDE1,1:R3-10:R3$$$V2.0; bridges inferred)
IC50 ([3]; 30 min preincubation, read-out: IC50, MMP-9 inhibition): 20 µM
IC50 ([4]; 30 min preincubation, read-out: IC50, MMP-2 inhibition): 20 µM
inhibition of MMP-2 ([4]; FIG. 1B): 100%
solubility [5]: water-soluble

Molecule: CC(C)C[C@@H]1NC(=O)[C@H]([C@@H](C)O)NC(=O)[C@H](Cc2ccccc2)NC(=O)CNC(=O)[C@H](Cc2c[nH]c3ccccc23)NC(=O)[C@H](Cc2c[nH]cn2)NC(=O)[C@H]([C@@H](C)O)NC(=O)[C@H]([C@@H](C)O)NC(=O)[C@@H](N)CSSC[C@@H](C(=O)O)NC1=O [iCTT, CTTHWGFTLC] (HELM PEPTIDE1{C.T.T.H.W.G.F.T.L.C}$PEPTIDE1,PEPTIDE1,1:R3-10:R3$$$V2.0; N-terminus and C-terminus assumed)
inhibition of casein degradation by MMP-2 [6]: nearly complete inhibition
half-life at 150 μM [1]: 0.5 h

% of the activity in comparison to the wild type peptide ([4]; FIG. 1B, CTT = 100% inhibition): about 80%
Molecule: CTTAWGFTLC (disulfide 1-10 (inferred)) [H→A, Ala-substitution of the CTT-peptide]

Molecule: GRENYHGCTTRWGFTLC
gelatinase A inhibitory activity [7]: active
solubility ([5]; water or PBS): more soluble into water or PBS than the original peptide

gelatinase inhibitory activity relative to iCTT ([3]; FIG. 1A): several fold less active than iCTT
Molecule: STTHWGFTLS [non-cyclic synthetic control peptide]

IC50, gelatin degradation assay [8]: 20 µM
IC50, gelatin degradation assay [9]: 20 µM
Molecule: CTTHWGFTLC (disulfide 1-10 (inferred)) [iCTT: recombinant CTTHWGFTLC peptide]

activity in comparison to the wild type peptide, gelatin degradation assay [9]: 36 % of the activity of the wild type peptide
Molecule: CTTHWGATLC (disulfide 1-10 (inferred)) [F → A alanine mutant of CTT]

activity in comparison to the wild type peptide, gelatin degradation assay [9]: 17 % of the activity of the wild type peptide
Molecule: CTTHAGFTLC (disulfide 1-10 (inferred)) [W → A alanine mutant of CTT]

IC50, gelatin degradation assay [8]: 20 µM
IC50, gelatin degradation assay [9]: 20 µM
Molecule: CTTHWGFTLC (disulfide 1-10 (inferred)) [CTT: CTTHWGFTLC peptide (chemically synthesized)]

activity in comparison to the wild type peptide, gelatin degradation assay [9]: 53 % of the activity of the wild type peptide
Molecule: CTTHWAFTLC (disulfide 1-10 (inferred)) [G → A alanine mutant of CTT]
